This is an account of results in a protein production outcome set (Wang et al. 2014).

A short description of the series: label from the status in PepcDB records.
As for “MITTIPWKATQAQPNAFPERQALMPVWEGEAIPQAEWQQCWQQAAINVLKEDGLAYFHIPFCASHCIFCGFYRNAWKEDYSKVYTDKLIEELAYEASIRQGNGKIQAVYFGGGTPTALATEDLVRLIKACYQYLPLATDCEFTLEGRISHFDIEKARACVEAGVNRISIGVQTFNSAIRKRLGRKHSGEEAYAYLQALCELDAVIVADLIFGLPNQTDEVWANDINVASGLPLSGLDIYAFNNYPFLPINKMIEHGTLPPAASFEVQAQHYAYAVENLQQAGWTQVSNNHFAFPGRGERNRYNTLVKSNMPCLAFGSGAGGNFSGYSFQVDTTLQTYLDTPADKKALSYLSKQGPNKQLLGIVQHDLELGYLDIKLFRDNPKAMKLLMQWQQLSLLNIDANGIACLNISGRYWSPTLIRKLMLTLPTHDEKEHKMVKLSEQQLAELRQSLAENPGQILEMVAGMKQCSFEEVISCLPQEMITKTDGSRFVEIMQALATLEDAVTFIAHTADAIVEVTGKLPSGQIGRGFYNFDHTHEGGVHGHLRYENCAAIYLLERPFMGKHTVSLNFVNHQGGAMFKIFVGRDAERNLRQNQIDFMRQLIKG”, the protein production result was “failed”. In the case of “MPIHIGSSIPLMVEKMLTEMVKPSKHIPQQTLNLSTLDNDPYNEVIYKACYVFKAKNVADDDNRPEALLREALSDLLGYYYPLSGSLKRQESDRKLQLSCGGDGGGVPFTVATANVELSSLKNLENIDSDTALNFLPVLHVDIDGYRPFALQVTKFECGGFILGMAMSHAMCDGYGEGHIMCALTDLAGGKKKPMVTPIWERERLVGKPEDDQPPFVPGDDTAASPYLPTDDWVTEKITIRADSIRRLKEATLKEYDFSNETITTFEVIGAYLWKSRVKALNLDRDGVTVLGLSVGIRNVVDPPLPDGYYGNAYIDMYVPLTAREVEEFTISDIVKLIKEAKRNAHDKDYLQEELANTEKIIKMNLTIKGKKDGLFCLTDWRNIGIFGSMDFGWDEPVNIVPVVPSETARTVNMFMRPSRLESDMVGGVQIVVTLPRIAMVKFKEEMEALE”, the protein production entry is reported as “failed”.

On to “MHRSTFIRTSGTSSRTLTARYRSQYTGLLVARVLFSTSTTRAQGGNPRSPLQIFRDTFKKEWEKSQELQENIKTLQDASGKLGESEAYKKAREAYLKAQRGSTIVGKTLKKTGETMEHIATKAWESELGKNTRKAAAATAKKLDESFEPVRQTKIYKEVSEVIDDGESSRYGGFITKEQRRLKRERDLASGKRHRAVKSNEDAGTAVVATNIESKESFGKKVEDFKEKTVVGRSIQSLKNKLWDESENPLIVVMRKITNKVGGFFAETESSRVYSQFKLMDPTFSNESFTRHLREYIVPEILEAYVKGDVKVLKKWFSEAPFNVYAAQQKIFKEQDVYADGRILDIRGVEIVSAKLLAPQDIPVLVVGCRAQEINLYRKKKTGEIAAGDEANILMSSYAMVFTRDPEQIDDDETEGWKILEFVRGGSRQFT”, for which the protein production result is “failed”. Consider “MTIPNQIEVRGGRVHNLKNIDVDIPLNKFVAISGLSGSGKSSLAMGILYEEGSRRYLDALSTYMRRRIKQGSQVDVTSVKHIPSALALRQRPSVPNERATVGTMSETFNILRLIFSRLGSPVCPNGHRLKPSLKIAESMSLSGEKMGQLTCPVCGENFYAPSAEQFAFNSEGACIECGGTGKVRQLDEDKLIADENLSIKEGAVASWSLPGRNFMPNVAEYAGVRIDIPYKDLTAKEKDFVLNGPEKKYKMDFLSGTGRVFHDFNVLYENAHQAVYRSAQTSKSERAQKRIAEFFTYSICPVCHGSRLKPELLKQWVGNSNINQVSQKQLGELPTWADQIQAELPANMHKMAHALFAEFLDNLQPLLDLGLDYLTMARNGNTLSTGELQRIQLARTLRTETTGVLYVLDEPSIGLHPANVAGLIKVLRKLVNQGNSLVVVDHNVDIIAAADEVIEIGPGSGEKGGQILDHGPISTIKNDQQSLIRPYLDGSAQLLARKIANQINNDGISFEVKNYFNLKDIKANIPLNQLTAVTGFSGAGKTSLILDSLVPAIKAESKNEKLPKQIINFSAPVSNVVGVDASPIGKSTRSTVATYTSIMNNLRRLFASQPLAKEKHFTPTYFSYNNKQGACPTCGGTGIVTLDIQFLPDMQQVCPTCHGDRYNQKVQQVKWQGMSIVDILNLDIEGALPLFKRVPKIERELKLLKEVGLDYLHLGESTPTLSGGEAQRLKLVTHLSHKQSDTLFVFDEPTIGLHPLDVKTLVKVMQKLLDQGATLITITHDLNLIANCDYIIDLGPQGGNNGGQIVASGRVMDLIKDPHSLTTQYLAVYCENLICLKIIIDLLA”, for which the protein production result is recorded as “failed”.
